Target: CD22
Experiment: BLI

Substance | Kd
Epratuzumab Fab | 59 nM
Epratuzumab Fab-Ferritin | 51 nM

— patent publication US12214052
